Measurements published in paper PMC6831305, “Secreted protein acidic and rich in cysteine mediates active targeting of human serum albumin in U87MG xenograft mouse models” (Theranostics, 2019).

B1: recombinant human SPARC (secreted protein acidic and rich in cysteine) (natural protein, UniProt P09486 18-303, looked up)
chain: APQQEALPDETEVVEETVAEVTEVSVGANPVQVEVGEFDDGAEETEEEVVAENPCQNHHCKHGKVCELDENNTPMCVCQDPTSCPAPIGEFEKVCSNDNKTFDSSCHFFATKCTLEGTKKGHKLHLDYIGPCKYIPPCLDSELTEFPLRMRDWLKNVLVTLYERDEDNNLLTEKQKLRVKKIHENEKRLEAGDHPVELLARDFEKNYNMYIFPVHWQFGQLDQHPIDGYLSHTELAPLRAPLIPMEHCTTRFFETCDLDNDKYIALDEWAGCFGIKQKDIDKDLVI
notes: secreted protein acidic and rich in cysteine (SPARC), human, recombinant, cell-derived; also called exogenous SPARC; source: bought: R&D system (cell-derived, 941-SP)
B2: Cy3-labeled recombinant human SPARC (natural protein, UniProt P09486 18-303, looked up)
chain: B1 chain
modifications: ADIBO-NHS conjugated, then Cy3-azide by click reaction (sites not given)
notes: secreted protein acidic and rich in cysteine (SPARC), human, recombinant, cell-derived; Same bought protein as m2, with the Cy3 label; also called Cy3-SPARC; fluorescence-labeled SPARC; source: bought: R&D system (cell-derived, 941-SP), then labelled via ADIBO-NHS and Cy3-azide click reaction

Columns and labels:
[1] = biological target: T1, FNR648-labeled human serum albumin (human, UniProt P02768 25-609, FNR648 fluorescence dye conjugated (site not stated)); assay: co-IP; SPARC and FNR648-HSA incubated 2 h at 4 °C after pre-clearing (normal rabbit serum, protein A/G PLUS-Agarose); precipitated with rabbit anti-SPARC antibody and protein A/G PLUS-Agarose; 8% SDS-PAGE, FNR648 fluorescence in the gel read by IVIS; settings: both partners purified
T1 construct: human serum albumin (HSA), human; The pre-clearing step of the IP names plain 'HSA'; the detected species is FNR648-HSA; also called FNR648-HSA; HSA
T1 sequence (P02768 25-609): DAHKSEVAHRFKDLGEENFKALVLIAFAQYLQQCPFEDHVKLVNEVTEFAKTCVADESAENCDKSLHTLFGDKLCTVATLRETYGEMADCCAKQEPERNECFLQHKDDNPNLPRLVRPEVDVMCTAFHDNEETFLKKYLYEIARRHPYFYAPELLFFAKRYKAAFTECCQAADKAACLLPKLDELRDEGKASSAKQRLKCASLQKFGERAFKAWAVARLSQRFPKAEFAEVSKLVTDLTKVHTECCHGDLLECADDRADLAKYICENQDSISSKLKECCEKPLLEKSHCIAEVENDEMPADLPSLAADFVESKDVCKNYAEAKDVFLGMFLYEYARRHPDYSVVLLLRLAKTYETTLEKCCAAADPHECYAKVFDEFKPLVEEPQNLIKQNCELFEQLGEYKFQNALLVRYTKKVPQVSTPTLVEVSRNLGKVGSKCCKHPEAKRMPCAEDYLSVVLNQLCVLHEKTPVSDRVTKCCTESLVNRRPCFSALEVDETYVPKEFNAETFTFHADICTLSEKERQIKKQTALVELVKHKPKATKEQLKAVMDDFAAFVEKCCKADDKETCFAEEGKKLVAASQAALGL

[2] = biological target: T1, FNR648-labeled human serum albumin; assay: FRET or BRET; Cy3-SPARC (donor) and FNR648-HSA (acceptor) added to U87MG cells; confocal imaging, excitation 514 nm, emission 540-600 nm (Cy3-SPARC) and 640-750 nm (FNR648-HSA); line ROI analysis; settings: both partners purified

Row | Binder | binding result [1] | binding result [2]
1 | B1 | binds | 
2 | B2 |  | binds
